According to patent US11857697B2, “Compositions and methods for obtaining 3-dimensional lung-like epithelium and related uses thereof” (THE REGENTS OF THE UNIVERSITY OF MICHIGAN, priority 2017, dated 2024):
Entries after “also recorded” stand apart in the source; their conditions may differ.

B1: Recombinant Human Fibroblast Growth Factor 10 (protein, UniProt O15520 38-208, looked up)
Fibroblast growth factor 10: QALGQDMVSPEATNSSSSSFSSPSSAGRHVRSYNHLQGDVRWRKLFSFTKYFLKIEKNGKVSGTKKENCPYSILEITSVEIGVVAVKAINSNYYLAMNKKGKLYGSKEFNNDCKLKERIEENGYNTYASFNWQHNGRQMYVALNGKGAPRRGQKTRRKNTSAHFLPMVVHS

Legend:
[1] = test system: 12 week human fetal distal epithelial lung buds; experiment: Isolated human fetal lung bud culture in Matrigel: growth/expansion; assay type: cell-based; conditions: FGF10 500 ng/mL
Description: All research utilizing human fetal tissue was approved by the University of Michigan institutional review board. Normal human fetal lungs were obtained from the University of Washington Laboratory of Developmental Biology, and epithelial lung buds were dissected as described below. All experiments were repeated using tissues from 3 individual lungs; 84 day post fertilization of unknown gender, 87 day post fertilization male, and 87 day post fertilization of unknown gender. All tissues were shipped in Belzer's solution at 4 degrees Celsius and were processed and in culture within 24 hours of isolation.
(§1) Isolated mouse buds were cultured in 4-6 μl droplets of matrigel, covered with media, and kept at 37 degrees Celsius with 5% Carbon Dioxide. Isolated human fetal lung buds were cultured in 25-50 μl droplets of matrigel, covered with media, and kept at 37 degrees Celsius with 5% Carbon Dioxide.
Distal regions of 12 week fetal lungs were cut into ˜2 mm sections and incubated with dispase, 100% FBS and then 10% FBS as described above, and moved to a sterile petri dish. Mesenchyme was removed by repeated pipetting of distal lung pieces after dispase treatment. Buds were washed with DMEM until mesenchymal cells were no longer visible in the media. Buds were then moved to a 1.5 mL eppendorf tube containing 200 uL of Matrigel, mixed using a p200 pipette, and plated in ˜20 uL droplets in a 24 well tissue culture plate. Plates were placed at 37 degrees Celsius with 5% CO2 for 20 minutes while droplets solidified. 500 uL of media was added to each well containing a droplet. Media was changed every 2-3 days.
All mouse bud, human fetal bud, and hPSC-derived human lung organoids were grown in low-serum basal media (basal media) with added growth factors. […]

[2] = test system: E13.5 mouse distal epithelial lung buds; experiment: Isolated E13.5 mouse distal lung bud culture in Matrigel droplet: growth/expansion; assay type: cell-based; conditions: FGF10 500 ng/mL (50-fold excess), up to 5 days
Experimental: as §1
Mouse buds were dissected from E13.5 embryos. For experiments using Sox9CreER; Rosa^Tomato/Tomato mice, 50 ug/g of tamoxifen was dissolved in corn oil and given by oral gavage on E12.5, 24 hours prior to dissection. Briefly, in sterile environment, whole lungs were placed in 100% dispase (Corning Cat#354235) on ice for 30 minutes. Lungs were then transferred using a 25 uL wiretrol tool (Drummond Scientific Cat#S5-000-2050) to 100% FBS (Corning Cat#35-010-CV) on ice for 15 minutes, and then transferred to a solution of Dulbecco's Modified Eagle Medium: Nutrient Mixture F12 (DMEM/F12, ThermoFisher SKU#12634-010) with 10% FBS and 1× Pennicillin-Streptomycin (ThermoFisher Cat#15140122) on ice. To dissect buds, a single lung or lung lobe was transferred by wiretrol within a droplet of media to a 100 mm sterile petri dish. Under a dissecting microscope, the mesenchyme was carefully removed and epithelial bud tips were torn away from the bronchial tree using tungsten needles (Point Technologies, Inc.). Care was taken to remove the trachea and any connective tissue from dissected lungs. Isolated bud tips were picked up using a p20 pipette and added to an eppendorf tube with cold Matrigel (Corning Ref#354248) on ice. The buds were picked up in a p20 pipette with 4-6 uL of Matrigel and plated on a 24-well tissue culture well (ThermoFisher Cat#142475). The plate was moved to a tissue culture incubator and incubated for 5 minutes at 37 degrees Celsius and 5% CO2 to allow the Matrigel droplet to solidify. 500 uL of media was then added to the dish in a laminar flow hood. Media was changed every 2-3 days.
All mouse bud, human fetal bud, and hPSC-derived human lung organoids were grown in low-serum basal media (basal media) with added growth factors. Basal media consisted of Dulbecco's Modified Eagle Medium: Nutrient Mixture F12 (DMEM/F12, ThermoFisher SKU#12634-010) supplemented with 1× N2 supplement (ThermoFisher Catalog#17502048) and […] B27 supplement (ThermoFisher Catalog#17504044), along with 2 mM Glutamax (ThermoFisher Catalog#35050061), 1× Pennicillin-Streptomycin (ThermoFisher Cat#15140122) and 0.05% Bovine Serum Albumin (BSA; Sigma product# A9647). BSA was weighed and dissolved in DMEM F/12 media before being passed through a SteriFlip 0.22 uM filter (Millipore Item# EW-29969-24) and being added to basal media. Media was stored at 4 degrees Celsius for up to 1 month. On the day of use, basal media was aliquoted and 50 ug/mL Ascorbic acid and 0.4 uM Monothioglycerol was added. […]

Molecule	Tissue expansion / cyst formation of bud tips ([1]; Y27632 10 uM)	Bud growth [2]	Growth of human fetal lung buds ([1]; compared to basal media)
C[C@@H](N)[C@H]1CC[C@H](C(=O)Nc2ccncc2)CC1 [Y27632, reference compound]	in combination with FGF10, but not alone, promoted growth of buds into larger cyst-like structures; also recorded: did not lead to tissue expansion	–	–
B1	–	modest growth of buds	only modest growth; also recorded: expansion of the tissue was not robust
